Experiment in all cases: ELAA
Data set [1] has as its target Spike receptor-binding domain (S-RBD-Fc) (SARS-CoV-2, UniProt P0DTC2 319-541).
Another data set addresses Nucleocapsid (N) protein (SARS-CoV-2, UniProt P0DTC9 1-419).
In data set [2] the target is 3C-like protease (3CLpro) (SARS-CoV-2, UniProt P0DTD1 3264-3569).

As for GCAATGGTACGGTACTTCCGGATGCGGAAACTG (ssDNA) [Aptamer n.c. (33 nt)], the binding result (in data set [1]; in the data set with Nucleocapsid (N) protein; in data set [2]) was “no binding” throughout.

B1: N Aptamer 3 (57 nt) (ssDNA)
DNA: GCAATGGTACGGTACTTCCGGATGCGGAAACTGGCTAATTGGTGAGGCTGGGGCGGT
Take B1: the binding result with Nucleocapsid (N) protein is “binds”.

B2: N Aptamer 2 (78 nt) (ssDNA)
DNA: GCAATGGTACGGTACTTCCGGATGCGGAAACTGGCTAATTGGTGAGGCTGGGGCGGTCGTGCAGCAAAAGTGCACGCT
For B2, in the data set with Nucleocapsid (N) protein, the binding result is given as “binds”.

B3: N Aptamer 1 (88 nt) (ssDNA)
DNA: GCAATGGTACGGTACTTCCGGATGCGGAAACTGGCTAATTGGTGAGGCTGGGGCGGTCGTGCAGCAAAAGTGCACGCTACTTTGCTAA
Turning to B3, the binding result with Nucleocapsid (N) protein is listed as “binds”.
